Substitutions are numbered along the chain they refer to. Values belong to the binder of their own block, whether it stands above or below them.
Key:
[1] = molecular target: T1, native NPR of mouse brain (mouse, UniProt Q99J85 1-493); assay: co-IP from mouse brain lysate with a rabbit antibody to NP1; knockout lysates as controls
T1 sequence (looked up): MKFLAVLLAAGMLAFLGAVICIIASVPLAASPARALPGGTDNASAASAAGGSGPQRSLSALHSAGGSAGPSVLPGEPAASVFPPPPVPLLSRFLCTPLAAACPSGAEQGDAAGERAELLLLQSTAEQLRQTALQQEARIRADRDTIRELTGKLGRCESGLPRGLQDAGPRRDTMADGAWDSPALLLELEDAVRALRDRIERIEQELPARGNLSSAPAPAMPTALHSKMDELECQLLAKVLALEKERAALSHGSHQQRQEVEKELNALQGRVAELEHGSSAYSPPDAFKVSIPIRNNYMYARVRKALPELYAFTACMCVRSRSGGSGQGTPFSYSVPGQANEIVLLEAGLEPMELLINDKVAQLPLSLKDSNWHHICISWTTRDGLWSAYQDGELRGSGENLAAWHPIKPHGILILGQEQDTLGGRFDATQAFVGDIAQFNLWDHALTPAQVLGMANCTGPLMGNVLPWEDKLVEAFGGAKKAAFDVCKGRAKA
From the text: (§1) Narp and NP1 form highly organized homo- and hetero-multimer complexes that are covalently linked by N-terminal disulfide bonds (Xu et al., supra). Moreover, NPR and Narp formed heteromultimer complexes when coexpressed in HEK293T cells. Heteromultimer complex formation is dependent on the first and third cysteines of NPs that flank the first coiled-coil domain (Xu et al., supra). NPR was co-expressed with mutants of Narp, in which two or all three of the cysteines are mutated to serine. In mutant “Narp (C1, 2S),” the cysteines at positions 14 and […] were mutated to serines, and in mutant “Narp (C1, 2, 3S)” the cysteines at positions 14, 26, and 79 were mutated to serines. […] Thus, it appeared that NPR and Narp formed heterocomplexes that are stabilized by disulfide bonds. To examine NP complexes in brain, lysates from a control mouse were prepared and immunoprecipitated with rabbit antibody specific to NP1 or Narp. Lysates from knockout mice NP1 KO, Narp KO and combined NP1/Narp/NPR KO (NP TKO) were also utilized as controls. […] The ˜25 kDa band, presumptive NTF-NPR, also specifically co-IPed with both Narp and NP1. […] The pentraxin domain of Narp and NP1 is required for interaction with AMPAR.

[2] = molecular target: T2, HA-GluR6 (GluR6 with an N-terminal HA tag) (UniProt P42260 32-908); assay: co-IP from co-transfected HEK 293T cells
T2 construct: mature; also called wildtype HA GluR6

[3] = molecular target: T3, NMDA receptor subunits NR1 and NR2A (UniProt P35439 19-938; Q00959 23-1464); assay: co-clustering in co-transfected 293 cells, immunostaining
T3 construct: whole, on cells; Co-expressed in 293 cells; also called NR1/2A

[4] = molecular target: T4, neuronal glutamate transporter EAAC1 (UniProt P51907 1-523); assay: as above
T4 construct: whole, on cells
T4 sequence (looked up): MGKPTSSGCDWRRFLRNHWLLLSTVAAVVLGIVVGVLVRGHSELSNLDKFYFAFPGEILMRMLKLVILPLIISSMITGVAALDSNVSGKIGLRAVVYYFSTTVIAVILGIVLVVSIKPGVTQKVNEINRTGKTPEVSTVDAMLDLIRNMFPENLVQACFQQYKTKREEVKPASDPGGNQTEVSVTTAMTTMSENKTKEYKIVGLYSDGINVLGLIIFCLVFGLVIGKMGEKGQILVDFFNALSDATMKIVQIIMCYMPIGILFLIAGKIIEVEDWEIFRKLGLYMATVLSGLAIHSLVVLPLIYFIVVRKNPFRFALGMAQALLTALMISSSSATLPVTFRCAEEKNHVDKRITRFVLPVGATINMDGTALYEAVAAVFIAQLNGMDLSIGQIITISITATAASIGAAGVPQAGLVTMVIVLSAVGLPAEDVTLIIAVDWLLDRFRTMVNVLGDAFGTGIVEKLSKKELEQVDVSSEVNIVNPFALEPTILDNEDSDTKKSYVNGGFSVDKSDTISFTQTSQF

[5] = molecular target: T5, NMDA receptor subunit NR1 (UniProt P35439 19-938); assay: as above
T5 construct: whole, on cells

[6] = molecular target: T6, kainate receptor subunit GluR6 (UniProt P42260 32-908, limits assumed); assay: as above
T6 construct: whole, on cells

[7] = molecular target: T7, EC1 domain of GluR6 (display construct) (UniProt P42260 32-561, limits assumed); assay: co-clustering on transfected cells
T7 construct: domain: EC1 domain
T7 sequence (looked up): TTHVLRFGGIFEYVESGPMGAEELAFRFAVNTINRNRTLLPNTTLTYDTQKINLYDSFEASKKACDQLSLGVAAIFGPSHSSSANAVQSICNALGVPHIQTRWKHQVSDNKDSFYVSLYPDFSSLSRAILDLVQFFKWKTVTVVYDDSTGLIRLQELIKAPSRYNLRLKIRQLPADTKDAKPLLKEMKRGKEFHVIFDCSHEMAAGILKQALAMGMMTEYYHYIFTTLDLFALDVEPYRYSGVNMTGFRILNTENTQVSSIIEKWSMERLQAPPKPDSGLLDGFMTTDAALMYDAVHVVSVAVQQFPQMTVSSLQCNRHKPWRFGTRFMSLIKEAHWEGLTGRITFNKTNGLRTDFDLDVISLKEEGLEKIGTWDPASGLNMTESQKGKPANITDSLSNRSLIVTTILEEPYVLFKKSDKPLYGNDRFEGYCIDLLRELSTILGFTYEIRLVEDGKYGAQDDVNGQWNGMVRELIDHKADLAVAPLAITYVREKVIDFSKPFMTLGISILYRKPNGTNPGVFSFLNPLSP

[8] = molecular target: metabotropic glutamate receptor mGluR5 (UniProt P31424 21-1203, limits assumed); assay: biochemical assays, not described further
metabotropic glutamate receptor mGluR5, sequence (P31424 21-1203 limits assumed): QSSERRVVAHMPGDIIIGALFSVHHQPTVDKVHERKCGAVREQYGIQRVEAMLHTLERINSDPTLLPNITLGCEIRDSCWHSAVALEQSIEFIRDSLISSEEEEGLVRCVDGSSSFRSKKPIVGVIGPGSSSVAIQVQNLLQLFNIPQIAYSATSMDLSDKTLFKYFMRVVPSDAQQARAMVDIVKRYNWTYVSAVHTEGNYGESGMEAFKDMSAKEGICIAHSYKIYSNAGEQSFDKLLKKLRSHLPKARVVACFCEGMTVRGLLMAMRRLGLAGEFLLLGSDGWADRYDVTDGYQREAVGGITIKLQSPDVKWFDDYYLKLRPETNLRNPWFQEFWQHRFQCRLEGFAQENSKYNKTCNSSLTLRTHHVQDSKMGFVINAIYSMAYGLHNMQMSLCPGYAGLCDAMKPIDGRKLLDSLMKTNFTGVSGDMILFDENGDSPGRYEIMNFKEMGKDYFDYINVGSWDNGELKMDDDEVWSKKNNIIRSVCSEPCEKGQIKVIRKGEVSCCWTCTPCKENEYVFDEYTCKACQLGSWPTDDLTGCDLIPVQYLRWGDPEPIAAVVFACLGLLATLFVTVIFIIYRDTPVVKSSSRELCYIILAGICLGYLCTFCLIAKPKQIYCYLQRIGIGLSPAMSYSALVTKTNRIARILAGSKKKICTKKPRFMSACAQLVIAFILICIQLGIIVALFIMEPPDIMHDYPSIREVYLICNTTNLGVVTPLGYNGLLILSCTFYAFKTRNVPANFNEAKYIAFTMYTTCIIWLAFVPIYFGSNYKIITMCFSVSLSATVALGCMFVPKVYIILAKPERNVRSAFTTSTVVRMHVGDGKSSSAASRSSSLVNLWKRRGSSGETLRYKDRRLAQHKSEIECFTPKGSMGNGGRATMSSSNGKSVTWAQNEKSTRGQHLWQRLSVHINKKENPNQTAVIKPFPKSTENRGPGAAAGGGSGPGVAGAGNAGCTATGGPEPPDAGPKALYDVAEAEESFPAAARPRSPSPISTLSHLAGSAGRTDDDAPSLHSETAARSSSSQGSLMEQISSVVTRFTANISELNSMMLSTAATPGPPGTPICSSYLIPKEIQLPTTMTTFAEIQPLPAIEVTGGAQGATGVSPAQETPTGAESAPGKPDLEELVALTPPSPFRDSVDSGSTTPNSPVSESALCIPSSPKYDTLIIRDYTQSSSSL

[9] = molecular target: T8, neuronal pentraxin receptor (NPR), full length, rat (rat, UniProt O35764 1-494); assay: co-IP from co-transfected HEK293T cells
T8 construct: whole, on cells; Stands for NPR expressed in HEK293T cells and for native NPR of rat brain extracts; also called full-length NPR; wtNPR
T8 sequence (looked up): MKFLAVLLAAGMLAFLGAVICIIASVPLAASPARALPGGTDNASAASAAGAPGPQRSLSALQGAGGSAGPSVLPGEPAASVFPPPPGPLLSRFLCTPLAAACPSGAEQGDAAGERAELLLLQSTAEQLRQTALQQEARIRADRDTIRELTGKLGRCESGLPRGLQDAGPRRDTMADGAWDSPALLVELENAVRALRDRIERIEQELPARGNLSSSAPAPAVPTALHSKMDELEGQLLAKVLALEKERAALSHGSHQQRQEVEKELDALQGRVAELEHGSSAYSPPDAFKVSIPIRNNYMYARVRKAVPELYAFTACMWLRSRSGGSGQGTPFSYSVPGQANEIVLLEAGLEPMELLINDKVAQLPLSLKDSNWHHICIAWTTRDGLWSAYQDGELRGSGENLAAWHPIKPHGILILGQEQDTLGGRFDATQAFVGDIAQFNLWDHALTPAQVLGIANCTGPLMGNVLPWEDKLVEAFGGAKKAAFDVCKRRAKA
From the text: as §1
(§2) To determine if NPR would interact with AMPAR, AMPAR subunits from GluR1 or GluR6 were HA tagged (GluR1-HA and GluR6-HA, respectively) were co-transfected with myc-tagged Narp (Narp-myc) or NPR(NPR-myc) into HEK293T cells. Lysates were assayed for co-immunoprecipitation. […] Similarly, GluR1-HA but not GluR6-HA co-IPed with NPR-myc.

[10] = molecular target: T9, GluR6-HA (HA tagged GluR6 of Example 10) (UniProt P42260 32-908, limits assumed); assay: co-IP from co-transfected HEK293T cells
T9 construct: whole, on cells; not shown: HA tag
T9 sequence (P42260 32-908 limits assumed): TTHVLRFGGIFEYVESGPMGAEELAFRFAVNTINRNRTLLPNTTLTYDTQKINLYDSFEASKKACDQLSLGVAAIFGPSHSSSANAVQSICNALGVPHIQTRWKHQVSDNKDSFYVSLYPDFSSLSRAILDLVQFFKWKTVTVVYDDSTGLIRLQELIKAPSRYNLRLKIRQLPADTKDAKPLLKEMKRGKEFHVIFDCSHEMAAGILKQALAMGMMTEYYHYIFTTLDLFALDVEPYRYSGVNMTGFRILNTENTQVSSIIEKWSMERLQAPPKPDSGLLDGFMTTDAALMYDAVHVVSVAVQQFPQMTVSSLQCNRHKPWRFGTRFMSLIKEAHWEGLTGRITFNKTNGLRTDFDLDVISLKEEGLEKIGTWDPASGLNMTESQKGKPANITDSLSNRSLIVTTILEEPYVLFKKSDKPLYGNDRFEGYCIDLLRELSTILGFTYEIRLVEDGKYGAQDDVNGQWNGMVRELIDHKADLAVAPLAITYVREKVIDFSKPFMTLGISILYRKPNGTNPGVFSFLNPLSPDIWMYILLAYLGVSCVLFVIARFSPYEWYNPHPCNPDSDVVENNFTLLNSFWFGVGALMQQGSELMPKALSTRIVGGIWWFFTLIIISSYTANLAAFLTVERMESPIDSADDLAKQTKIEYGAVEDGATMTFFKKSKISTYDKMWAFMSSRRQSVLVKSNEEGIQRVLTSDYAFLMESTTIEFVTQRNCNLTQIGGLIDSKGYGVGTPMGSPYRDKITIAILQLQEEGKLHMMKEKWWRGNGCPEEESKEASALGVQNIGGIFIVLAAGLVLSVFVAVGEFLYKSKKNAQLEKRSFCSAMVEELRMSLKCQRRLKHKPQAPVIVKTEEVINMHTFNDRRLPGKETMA
From the text: as §1, §2

[11] = molecular target: T1, native NPR of mouse brain; assay: co-IP from mouse brain lysate with a rabbit antibody to Narp; knockout lysates as controls
From the text: as §1

binding result [1]: binds
B1: native neuronal pentraxin 1 (NP1) of mouse brain (ligand, UniProt Q62443 23-432, looked up)
chain: QDFGPTRFICTSVPVDADMCAASVAAGGAEELRSNVLQLRETVLQQKETILSQKETIRELTTKLGRCESQSTLDSGPGEARSGGGRKQPGSGKNTMGDLSRTPAAETLSQLGQTLQSLKTRLENLEQYSRLNSSSQTNSLKDLLQSKIDDLERQVLSRVNTLEEGKGGPKNDTEERAKIESALTSLHQRISELEKGQKDNRPGDKFQLTFPLRTNYMYAKVKKSLPEMYAFTVCMWLKSSAAPGVGTPFSYAVPGQANELVLIEWGNNPMEILINDKVAKLPFVINDGKWHHICVTWTTRDGVWEAYQDGTQGGNGENLAPYHPIKPQGVLVLGQEQDTLGGGFDATQAFVGELAHFNIWDRKLTPGEVYNLATCSSKALSGNVIAWAESQIEIFGGATKWTFEACRQIN

binding result [2]: no binding | binding result [3]: no binding | binding result [4]: no binding | binding result [5]: no binding | binding result [6]: no binding | binding result [7]: no binding | binding result [8]: no binding
B2: Neuronal activity regulated pentraxin (Narp) (ligand)
chain: QAQDNPIPGSRFVCTALPPEAARAGCPLPAMPMQGGALSPEEELRAAVLHWRETVVQQKETLGAQREAIRELTSKLARCEGLAGGKARGTGATGKDTMGDLPRDPGHVVEQLSRSLQTLKDRLESLELQLHTNASNAGLPSDFREVLQRRLGELERQLLRKVAELEDEKSLLHNETSAHRQKTENTLNALLQRVTELERGNSAFKSPDAFKVSLPLRTNYLYGKIKKTLPELYAFTICLWLRSSASPGIGTPFSYAVPGQANEIVLIEWGNNPIELLINDKVAQLPLFVSDGKWHHICITWTTRDGMWEAFQDGEKLGTGENLAPWHPIKPGGVLILGQEQDTVGGRFDATQAFVGELSQFNIWDRVLRAQEIINIANCSTNMPGNIIPWVDNNVDVFGGASKWPVETCEERLLDL
notes: Secreted, glycosylated, disulfide-linked multimer (>220 kDa on non-reducing gels); The signal peptide is called putative; also called neuronal pentraxin 2; untagged Narp

binding result [9]: no binding
B3: Narp (C1, 3S)-myc, Narp mutant in which cysteines 14 and 79 are mutated to serines (ligand)
chain: B2 chain with C14S, C79S
notes: also called Narp (C1, 2S); mutant Narp; not shown: C-terminal myc tag

binding result [10]: no binding
B4: C-terminal myc-tagged version of Narp (myc-Narp) (ligand)
chain: B2 chain
notes: also called myc-tagged Narp; myc-tagged full length Narp; not shown: C-terminal myc tag

binding result [9]: no binding
B5: Narp (C1, 2, 3S)-myc, Narp mutant in which cysteines 14, 26, and 79 are mutated to serines (ligand)
chain: B2 chain with C14S, C26S, C79S
notes: also called mutant Narp; not shown: C-terminal myc tag

binding result [11]: binds
B6: native Narp of mouse brain (ligand, UniProt O70340 15-429, looked up)
chain: AGRAQDSPIPGSRFVCTALPPEAARAGCPLPAMPMQGGALSPEEELRAAVLQLRETVVQQKETLGAQREAIRELTGKLARCEGLAGGKARGTGKDTMGDLPRDPGHVVEQLSRSLQTLKDRLESLELQLRTNVSNAGLPSDFREVLQRRLGELERQLLRKVAELEDEKSLLHNETSAHRQKTESTLNALLQRVTELERGNSAFKSPDAFKVSLPLRTNYLYGKIKKTLPELYAFTICLWLRSSASPGIGTPFSYAVPGQANEIVLIEWGNNPIELLINDKVAQLPLFVSDGKWHHICITWTTRDGMWEAFQDGEKLGTGENLAPWHPIKPGGVLILGQEQDTVGGRFDATQAFVGELSQFNIWDRVLRAQEIINIANCSTNMPGNIIPWVDNNVDVFGGASKWPVETCEERLLDL

From patent US20090123940A1 (Johns Hopkins, published 2009)
